The target of this test is 2P-IRS-1 (bisphosphorylated IRS-1 peptide), labeled with Cy5. The test can be described thus: MST; Monolith NT.115; 100 nM Cy5-labeled 2P-IRS-1, unlabeled protein serially diluted; 25 °C; n=3.

A word on the Kd: it is the concentration at which binding is half-saturated. Read a low Kd as tighter binding.

Turning to “NEDD8-SHP2 conjugation (SHP2 neddylated in the in vitro neddylation assay) (from UniProt Q06124 1-593; Q15843 1-76) (complex)”, the Kd was more than 1000 µM.

“SHP2 WT recombinant protein (Src homology region 2-containing protein tyrosine phosphatase 2) (from UniProt Q06124 1-593) (enzyme)” displayed a Kd of 473 µM.

Source of the values: PMC9927946.
